{
  "source": "the DeepSol protein solubility set",
  "data": [
    {"assay": "soluble on expression in E. coli; label from the status in PepcDB or PDB records", "values": [
      {"sequence": "MLGMTHFSQQDNFSVAARVLGALFYYAPESAEAAPLVAVLTSDGWETQWPLPEASLAPLVTAFQTQCEETHAQAWQRLFVGPWALPSPPWGSVWLDRESVLFGDSTLALRQWMREKGIQFEMKQNEPEDHFGSLLLMAAWLAENGRQTECEELLAWHLFPWSTRFLDVFIEKAEHPFYRALGELARLTLAQWQSQLLIPVAVKPLFR", "soluble on expression in E. coli": "not soluble"},
      {"sequence": "MLGMYVPDRFALKSSRVQDGMGLYTARRVRKGEKFGPFAGEKRMPEDLDENMDYRLMWEVRGSKGEVLYILDATNPRHSNWLRFVHEAPSQERKNLAAIQEGENIFYLAVDDIETDTELLIGYLDSDVEAEEEEQQALTMTKEGKVDHSKGQLAAGSKGHLGCEEDFACPQCESSFPSEEVLTEHLQSLHQKPTGEKEFKCENCGKKFPVRQALQRHFEQHRKACRGEARFVCKADSCGKRLKSKDALRRHQENVHTGDPKRKLICSVCNRKCTSVSSLQEHRKIHEIFDCQECMKKFISANQLKRHMITHSEKRPYNCEICNKSFKRLDQVGAHKVIHSEDKPYQCKLCGKGFAHRNVYKNHKKTHSEERPFQCDACKALFRTPFSLQRHLLIHNSERTFKCHHCDATFKRKDTLNVHVQVVHERHKKYRCELCNKAFVTPSVLRSHKKTHTGEKEKVCPYCGQKFASSGTLRVHIRSHTGERPYQCPYCEKGFSKNDGLKMHIRTHTREKPYQCSECSKAFSQKRGLDATKRTHTGEKPFQCDVCDLAFSLKKMLIRHKMTHNPNRPMAECHFCHKKFTRNDYLKVHMDNIHGVADS", "soluble on expression in E. coli": "soluble"},
      {"sequence": "MLGVCYYPEHWPKERWKEDARRMREAGLSHVRIGEFAWALLEPEPGRLEWGWLDEAIATLAAEGLKVVLGTPTATPPKWLVDRYPEILPVDREGRRRRFGGRRHYCFSSPVYREEARRIVTLLAERYGGLEAVAGFQTDNEYGCHDTVRCYCPRCQEAFRGWLEARYGTIEALNEAWGTAFWSQRYRSFAEVELPHLTVAEPNPSHLLDYYRFASDQVRAFNRLQVEILRAHAPGKFVTHNFMGFFTDLDAFALAQDLDFASWDSYPLGFTDLMPLPPEEKLRYARTGHPDVAAFHHDLYRGVGRGRFWVMEQQPGPVNWAPHNPSPAPGMVRLWTWEALAHGAEVVSYFRWRQAPFAQEQMHAGLHRPDSAPDQGFFEAKRVAEELAALALPPVAQAPVALVFDYEAAWIYEVQPQGAEWSYLGLVYLFYSALRRLGLDVDVVPPGASLRGYAFAVVPSLPIVREEALEAFREAEGPVLFGPRSGSKTETFQIPKELPPGPLQALLPLKVVRVESLPPGLLEVAEGALGRFPLGLWREWVEAPLKPLLTFQDGKGALYREGRYLYLAAWPSPELAGRLLSALAAEAGLKVLSLPEGLRLRRRGTWVFAFNYGPEAVEAPASEGARFLLGSRRVGPYDLAVWEEA", "soluble on expression in E. coli": "soluble"},
      {"sequence": "MLICNSSFPYLQVDYKIGVKGLLAKSKEDIDKCCKGEYFMQLKYVDTKEEIIAINRKSKHIEPHLHNALEIVCVTSGSLELGVGQELYHMEKGDIGFVFPDVIHHYQVLTPGVNKATYLIASPFSIDKFADIMQSMAPEYPIIKAEKVEPEVYRVINAILETEQSDITVAQAYLQIVLARCIGKLNLVEKSSVGSNDLIYQTVSYISANFKKKFSLEEMAKDLGVGKYVLSRLFSKTFHRNFNQYLNDARLNYACHRLENTSDSITNICLDSGFESQRTFNRVFKEKYKISPSDYRSTCVKEMLS", "soluble on expression in E. coli": "not soluble"},
      {"sequence": "MLIDMILAFSVAPTETPNNKAEMADVVAEAIRVVRESGLPNETNAMFTLIEGEWDEVMAVVKKATDAVLAVSPRASLVIKADIRPGYTGQLQQKVASVERVLAGDSES", "soluble on expression in E. coli": "not soluble"},
      {"sequence": "MLIGMSNQTVNQAVSSGVKASPHRFNRFEIKYLITEQDVPALREQLATRMSTDPLSPPGGYRVESLYFDSADLRCYTEKIEGLKFRRKLRIRTYGDGVLTPESTVSVEIKQRVNKVTQKRRLDLPFIYALALGDSTGAAVGEQVDVEKLLEISPENQHALIHEMASFAKNYRLRPIATTKYHREAFVGADAEESSRVTIDHGVSGRDRDFLLGQDLEDRPTVAQGLAVVEIKCDERVPFWLTDMTAQLEMSVIRMSKYCETIEAFHNRPASAFGAVDPIFLEHHHHHH", "soluble on expression in E. coli": "soluble"},
      {"sequence": "MLIQKAYKYRLYPTDQQAQRLRQLCGCARFVWNYALNETLSIHDAGGKIPSAFDLNKRLTGWKKLPELAFLSEGYTDNLQQKLKDLRSAWDRCFDKSLTAEKPVFKKKTKGCDSIRFVNFSKYCGLDYGRVKLPSGLGWVKFRQSRKIEGVIKNCTISQHAGHWYVSFQVELAVTDPIHASTSAIGLDAGITKLATLSDGTVFEPVNSLKKNQDKLARLQRRLARMVKFSANWKKQKAKISRFHSHIANIRRDYLHKTTTTISKNHAMIVIEDLKVSNMSKSAAGTVDQPGRNVAAKSGLNRAILDQGWAEMRRQLEYKQAWRGGDVLAINPAYTSQKCACCGHTSKNNRRTQASFICTACGYTANADVNGARNILTAGFEVMAAGQILPSVRKGRARKAA", "soluble on expression in E. coli": "not soluble"},
      {"sequence": "MLIRTEAPADILTVDRLVRSAFDTEAEAKLVMSLRENSHLTLALVACSDDGEVIGHCLFSPVTLNGDDLNWQGLAPLCVKKEHQKQGIAEALVKEGLEMLTELGYPVVVVLGDSNYYQRFGFESATNYDMHSKWEVPEGAFMIKACSSEFLEGRSGLIEYCPEFDVL", "soluble on expression in E. coli": "not soluble"},
      {"sequence": "MLITKNQAEKWFDNSLGKQFNPDLFYGFQCYDYANMFFMLATGERLQGLYAYNIPFDNKAKIEKYGQIIKNYDSFLPQKLDIVVFPSKYGGGAGHVEIVESANLNTFTSFGQNWNGKGWTNGVAQPGWGPETVTRHVHYYDNPMYFIRLNFPNNLSVGNKAKGIIKQATTKKEAVIKPKKIMLVAGHGYNDPGAVGNGTNERDFIRKYITPNIAKYLRHAGHEVALYGGSSQSQDMYQDTAYGVNVGNKKDYGLYWVKSQGYDIVLEIHLDAAGESASGGHVIISSQFNADTIDKSIQDVIKNNLGQIRGVTPRNDLLNVNVSAEININYRLSELGFITNKNDMDWIKKNYDLYSKLIAGAIHGKPIGGVVASEVKAPVKNEKNPPVPAGYTLDKNNVPYKKEQGNYTVANVKGNNVRDGYSTNSRITGVLPNNTTITYDGAYCINGYRWITYIANSGQRRYIATGEVDIAGNRISSFGKFSAV", "soluble on expression in E. coli": "soluble"},
      {"sequence": "MLKFKNRIVEKRVKGAEKASFGGPVLLYRTLRKVTKLYKYITDKKSFPILVTSLFALFNPNSVLAADKYSNFEELKENESPLSYNILTTDVDRRVLILAPHGGGIEGGTSELARELSKSYSAYLFEGLRIPGASELHITSTNFDEPQALDLLSKHDLTISIHGYASSKKHTLVGGTDREKAAKITSLLTDAGFSAELLSEDSRLAGTNEQNIANKNSTGMSIQLEISTEQRREMFNTFTLAGRNGTQNQVFYDYIAVLTKFINENVYCMAGVAPLEHHHHHH", "soluble on expression in E. coli": "not soluble"},
      {"sequence": "MLKLGHCGVEKQEVQKRIGLRVIELREHKGWSQSDLARACNKDRQAIEKIESGKVNPTIFSLYEIAIALGVSLSKVTGI", "soluble on expression in E. coli": "not soluble"},
      {"sequence": "MLKQPIQAQQLIELLKVHYGIDIHTAQFIQGGADTNAFAYQADSESKSYFIKLKYGYHDEINLSIIRLLHDSGIKEIIFPIHTLEAKLFQQLKHFKIIAYPFIHAPNGFTQNLTGKQWKQLGKVLRQIHETSVPISIQQQLRKEIYSPKWREIVRSFYNQIEFDNSDDKLTAAFKSFFNQNSAAIHRLVDTSEKLSKKIQPDLDKYVLCHSDIHAGNVLVGNEESIYIIDWDEPMLAPKERDLMFIGGGVGNVWNKPHEIQYFYEGYGEINVDKTILSYYRHERIVEDIAVYGQDLLSRNQNNQSRLESFKYFKEMFDPNNVVEIAFATEQLEHHHHHH", "soluble on expression in E. coli": "soluble"},
      {"sequence": "MLKRKVITEFRRHNRSSRWNADAHLRAHERSANVEDDAIMRVDTCQLAANNPIEDFYSAAKCLSSRAFLFGVFDGHGGQQCSRHISTNLYPYLCASVLKKHEVVDYPSDQRLEWLFSSSDGHLPNAFKGRETQHIAEYHKQFKKNANAYTGTVREALKLAFETCDKDLAENALPSAKGVIDRHAAMVAASGSCCTLAHIRSRHLHVANLGDAAAVLGVVNPNGSVTARQLSRAHCVDNADEVHRIRIAHPASESQTVLRGGRLLGELFPLRAFGDVRYKWPLDLQKVVLEPLGHPPPQHLFTPPYLSTSPEVFYHKLTPNDRFLVLATDGLWEWLDPDTVVRLVHDHTLGTITQQPYVPKSGTSLRQVREQLKDRARGEQKTKKPIDENCATHIIRHALGGVSGGATKQYERLIDILQVPPGRARNYRDDITVIVIHFNETFLDGHEDDEE", "soluble on expression in E. coli": "not soluble"},
      {"sequence": "MLLKRRLFIAASLFAMHLSPALAADAVSFAPQPPAIDAGAWVLMDYTTGQVLTAGNEHQQRNPASLTKLMTGYVVDRAIDSHRISPDDIVTVGRDAWAKDNPVFVGSSLMFLKEGDRVSVRDLSRGLIVDSGNDACVALADYIAGGQPQFVAMMNSYVKKLNLQDTHFETVHGLDAPGQHSSAYDLAVLSRAIIHGEPEFYHMYSEKSLTWNGITQQNRNGLLWDKTMHIDGLKTGHTSGAGFNLIASAVDGQRRLIAVVMGAKSSKGREEQARKLLQWGQQNFATVQILHSGKKVGSERIWYGDKEKIALGTEQDFWMALPKAEIPHIKAKYVLDRKELEAPIAAHQQVGEIELYDRDKLIAQWPLVTLESVGKGGMFSRLSDYFQHKA", "soluble on expression in E. coli": "not soluble"},
      {"sequence": "MLLSKKSEYKTLSTVEHPQYIVFCDFDETYFPHTIDEQKQQDIYELEDYLEQKSKDGELIIGWVTGSSIESILDKMGRGKFRYFPHFIASDLGTEITYFSEHNFGQQDNKWNSRINEGFSKEKVEKLVKQLHENHNILLNPQTQLGKSRYKHNFYYQEQDEINDKKNLLAIEKICEEYGVSVNINRCNPLAGDPEDSYDVDFIPIGTGKNEIVTFMLEKYNLNTERAIAFGDSGNDVRMLQTVGNGYLLKNATQEAKNLHNLITDSEYSKGITNTLKKLIGFMRRKLEHHHHHH", "soluble on expression in E. coli": "soluble"},
      {"sequence": "MLLVSTGAAGAEVIYVEPGASIQAAVNNSTTGDFIIVKAGEYEENIVVNVSGVTVSSEPEKSGSVFIRAGDRNSSVFQVKADNVTISGFNITGSGEFFSTHEASSPRDSFPKDPDGQGVSDIPELRKTYSLGSGEVFISRSTEFDCPQAGICLDQVENCTIERNHIFENQYGVYLQGSMNNTLSNNTFFRNGILIDEGCSRNTAENNSIEEGNLIIGAHCWDNIISRNRLSNGGGIGIACCGGGNLVSNNEIINCSTGVDMYDTQARTVLCGNLITDCDYGIYLILVYDSRVYNNTISNSSRGIFLRENSQNNELSGNIINSSNESGIYLLDHCADNRIFNNYFNNTVNVKAENSKGNSWNITKAPGINIAEGPYLGGNFWADLNGTGYSQIAEDSDSDGICDLPYNVNGCDYDYLPLARLPFSPSLSGGNLKLLEHHHHHH", "soluble on expression in E. coli": "not soluble"},
      {"sequence": "MLLVSVISCLLISVLAKDAVTPRVGSQCTKNQVVRKLTVYEDGALEAECGPVPCGEVGKRCIDDQTSCRAETDVFSGMRWAPNGESILLRCCTMHAKNKIYVGTDVVAAGSFYEGGEVAEKDLYGDKGGAEYDFVANARTEQGGVRVWVYRMICAKGEKPVDFDPITTTSAPRVIKTTPAPTTTPTVEEEAEEAEQLEEDQPNDNEAEIVESNDEEEVVEEETEEEEEVTTTPAPKPFNPLRYRPPHFPRQSTGIRRA", "soluble on expression in E. coli": "not soluble"},
      {"sequence": "MLMGMKPLRLCAILASIPPLAMVVRGRIRPKNSRKRFPTIVVLGTAQYDGVPSRQFAARLKWAAEQWHTQRSQKVVTVGGKLPEDRFTEAAVAREYLIKEHVDSDLIVAVEQGHDTRGSLRAALSELEQPILIITDPNHSLRAELIARSEGIAAWASSTPYCPTTFPRWQWWWTFVHEQGGLCVVLIELVAGKDVAQKVEDALRRLQAWLRPSRRARHEQLREERLEHHHHHH", "soluble on expression in E. coli": "not soluble"},
      {"sequence": "MLPRGALVLNPFSEKAVSPEDRDMVLRRGIAALDCSWKKVKKSSVIFQTARNHRSLPFLVAANPTNYGKPCILSTAEAVAATLYIVGLKDIASDIMSYFKWGPHFLDLNRELLEAYSRAENSLEVVEIQKKFIGGLEHHHHHH", "soluble on expression in E. coli": "not soluble"}
    ]}
  ]
}
